The values that follow are results of earlier work, collected in publication doi:10.1101/2024.07.26.605324.

The target in one data set is His19 (UniProt position 19, ILSALHFMAWT). The data set can be described thus: NMR. The settings on record: 243–263 K; membrane-bound tetramer, wild type with both His19 and His27 present.
The next data set deals with His27 (UniProt position 27, AWTIGHLNQIK). The data set can be described thus: NMR. The settings on record: 243–263 K; membrane-bound tetramer, wild type with both His19 and His27 present.

For “Influenza B virus matrix protein 2 (BM2) proton channel (Influenza B virus)”, the pKa with His19 is on record as 4.2; with His27, 7.9.

For orientation: pKa means the pH at which an ionisable group is half protonated.
